± gives the uncertainty stated by the source.
Assay: self-splicing fitness, log relative to wild type (ln ratio); higher = more splicing; Tetrahymena group I intron in knt gene, E. coli kanamycin selection, DiMSum; sequences stand for … in CUCUCU…GGAGGGAAAAGUUAUCAGGCAUGCACCUGGUAGCUAGUCUUUAAACCAAUAGAUUGCAUCGGUUUAAAAGGCAAGACCGUCAAAUUGCGGGAAAGGGGUCAACAGCCGUUCAGUACCAAGUCUCAGGGGAAACUUUGAGAUGGCCUUGCAAAGGGUAUGGUAAUAAGCUGACGGACAUGGUCCUAACCACGCAGCCAAGUCCUAAGUCAACAGAUCUUCUGUUGAUAUGGAUGCAGUUCACAGACUAAAUGUCGGUCGGGGAAGAUGUAUUCUUCUCAUAAGAUAUAGUCGGACCUCUCCUUAAUGGGAGCUAGCGGAUGAAGUGAUGCAACACUGGAGCCGCUGGGAACUAAUUUGUAUGCGAAAGUAUAUUGAUUAGUUUUGGAGUACUCGUGGUCG
Summary of the method: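 Colonies from six replicate transformations of E. coli BL21(DE3) were pooled and amplicon-sequenced on an Illumina HiSeq 2500. The library placed an intron with all eight P1ex-region nucleotides randomised inside the knt kanamycin-resistance gene on pET-22b(+), and cells grew overnight at 37°C or 30°C on LB agar with or without 25 μg/mL kanamycin (plus 100 μg/mL carbenicillin, 50 μM IPTG, 0.2% rhamnose). Fitness is the DiMSum error-weighted combination of wild-type-normalised replicate fold changes, kanamycin versus none.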

Sequence | self-splicing fitness (ln) (30 °C) | self-splicing fitness (ln) (37 °C)
UCGAAGCAAUAUUACGUGAC | -2.44 ± 0.19 | -2.88 ± 0.21
GCUCAGCAAUAUUACGGUGG | -2.89 ± 0.17 | -1.41 ± 0.11
AACUAGCAAUAUUACGGUGU | -1.77 ± 0.083 | -0.956 ± 0.099
GUGAAGCAAUAUUACGACCG | -1.63 ± 0.23 | 0.706 ± 0.28
CUGGAGCAAUAUUACGGCCA | – | -1.99 ± 0.24
CAUUAGCAAUAUUACGCUGC | -3.92 ± 0.28 | -2.43 ± 0.24
GGACAGCAAUAUUACGUAUU | -0.426 ± 0.049 | -0.492 ± 0.068
GUCAAGCAAUAUUACGAUGU | -1.75 ± 0.042 | -0.404 ± 0.055
AAUAAGCAAUAUUACGAGAU | -3.82 ± 0.2 | -2.24 ± 0.21
AAUUAGCAAUAUUACGGCAA | -0.926 ± 0.14 | -0.497 ± 0.18
AGUUAGCAAUAUUACGCAUU | -3.25 ± 0.25 | -0.806 ± 0.17
CCCUAGCAAUAUUACGCACC | – | -2.9 ± 0.48
CGGGAGCAAUAUUACGGGCA | – | -1.14 ± 0.42
UGGGAGCAAUAUUACGAACA | -1.33 ± 0.088 | -1.02 ± 0.091
AAGAAGCAAUAUUACGGCCG | -1.47 ± 0.12 | -0.0374 ± 0.15
AAAAAGCAAUAUUACGACAU | 0.00477 ± 0.011 | 0.11 ± 0.032
UCCGAGCAAUAUUACGGUAU | -1.95 ± 0.15 | -2.41 ± 0.23
CAUGAGCAAUAUUACGAAGA | – | -2.3 ± 0.26
AAAUAGCAAUAUUACGAUAC | -2.95 ± 0.22 | -2.64 ± 0.36
UUCGAGCAAUAUUACGGCAG | -2.05 ± 0.17 | -1.39 ± 0.19
AAUCAGCAAUAUUACGCACC | -0.409 ± 0.17 | 0.0564 ± 0.22
GAAAAGCAAUAUUACGCGCC | -2.06 ± 0.16 | -1.25 ± 0.17
GACGAGCAAUAUUACGUCAU | -2.2 ± 0.2 | -3.16 ± 0.43
AAUCAGCAAUAUUACGAUAA | -0.0103 ± 0.084 | -0.0641 ± 0.1
AGGUAGCAAUAUUACGUGGG | -3.908 ± 0.027 | -2.98 ± 0.039

Sequence | self-splicing fitness (ln) (30 °C) | self-splicing fitness (ln) (37 °C)
CAACAGCAAUAUUACGCGAG | -2.29 ± 0.089 | -0.359 ± 0.066
UGUCAGCAAUAUUACGAGUC | -3.49 ± 0.26 | -2.78 ± 0.25
AGCCAGCAAUAUUACGGACU | -1.93 ± 0.088 | -0.917 ± 0.096
UCAUAGCAAUAUUACGACUA | -2.82 ± 0.29 | -1.78 ± 0.24
CUCAAGCAAUAUUACGGGUG | -1.43 ± 0.059 | -1.2 ± 0.073
UCGCAGCAAUAUUACGUAUC | -3.82 ± 0.37 | -2.15 ± 0.27
ACCUAGCAAUAUUACGCCUU | -1.43 ± 0.098 | 0.204 ± 0.12
CAGUAGCAAUAUUACGUCUC | -3.93 ± 0.37 | -2.13 ± 0.27
UAGGAGCAAUAUUACGUUAG | -3.8 ± 0.3 | -2.71 ± 0.49
CCUCAGCAAUAUUACGAGUC | -3.88 ± 0.34 | -2.27 ± 0.26
UGCAAGCAAUAUUACGUCCC | -1.37 ± 0.28 | -0.65 ± 0.24
GCUAAGCAAUAUUACGGGUG | -1.24 ± 0.069 | 0.116 ± 0.079
UUAGAGCAAUAUUACGCUCA | -1.75 ± 0.18 | -0.916 ± 0.26
CGGGAGCAAUAUUACGGGUG | -3.26 ± 0.28 | -2.07 ± 0.28
UUAUAGCAAUAUUACGCGGG | -1.86 ± 0.17 | -1.92 ± 0.3
UACCAGCAAUAUUACGUCAG | -0.702 ± 0.095 | -1.16 ± 0.11
UUGGAGCAAUAUUACGCGAA | – | -1.4 ± 0.29
AAUAAGCAAUAUUACGGGAC | -3.76 ± 0.3 | -2.17 ± 0.21
UGUAAGCAAUAUUACGUCUG | -0.606 ± 0.07 | 0.32 ± 0.093
UGAGAGCAAUAUUACGGGCG | -2.04 ± 0.21 | -0.434 ± 0.19
GUUAAGCAAUAUUACGAGGU | – | -2.51 ± 0.34
CUUCAGCAAUAUUACGUCCA | -2.19 ± 0.29 | -2.63 ± 0.36
UGAUAGCAAUAUUACGGUUA | -0.585 ± 0.067 | -0.467 ± 0.085
GCUAAGCAAUAUUACGUCAG | -3.84 ± 0.28 | -2.21 ± 0.22
UCCCAGCAAUAUUACGAUUU | -3.49 ± 0.11 | -1.52 ± 0.097

Sequence | self-splicing fitness (ln) (30 °C) | self-splicing fitness (ln) (37 °C)
AAAAAGCAAUAUUACGAGUU | -1.33 ± 0.065 | -0.488 ± 0.07
UUAAAGCAAUAUUACGUUCU | -1.08 ± 0.091 | -0.401 ± 0.12
GAGAAGCAAUAUUACGCUUC | -2.79 ± 0.26 | -2.89 ± 0.38
CUAGAGCAAUAUUACGGGGA | -2.35 ± 0.22 | -3.06 ± 0.47
AAUGAGCAAUAUUACGGUAU | – | -1.81 ± 0.19
UGCGAGCAAUAUUACGAGAG | -2.89 ± 0.15 | –
GCAAAGCAAUAUUACGCCCG | -1.23 ± 0.22 | -2.06 ± 0.38
UGUCAGCAAUAUUACGAACC | -0.269 ± 0.27 | -0.024 ± 0.26
CCAAAGCAAUAUUACGCCUA | -4.18 ± 0.33 | -3.12 ± 0.35
CUUUAGCAAUAUUACGUCCG | -0.0797 ± 0.084 | -0.326 ± 0.099
CUCAAGCAAUAUUACGAGCG | -3 ± 0.15 | -1.31 ± 0.12
UACAAGCAAUAUUACGUAUA | -2.22 ± 0.13 | -0.891 ± 0.12
CGGAAGCAAUAUUACGCCUG | -1 ± 0.098 | -0.724 ± 0.12
AUUAAGCAAUAUUACGACUA | -1.05 ± 0.12 | -0.207 ± 0.15
GGGCAGCAAUAUUACGAAUA | – | 0.108 ± 0.17
GAACAGCAAUAUUACGGGUC | -2.3 ± 0.19 | -3 ± 0.27
GUUCAGCAAUAUUACGAGCU | -3.34 ± 0.32 | -3.72 ± 0.39
CGGGAGCAAUAUUACGUACU | – | -1.86 ± 0.38
GCAAAGCAAUAUUACGAGUU | -2.47 ± 0.11 | -0.891 ± 0.093
CGGUAGCAAUAUUACGUAAU | -3.97 ± 0.47 | –
GGGCAGCAAUAUUACGACGA | -0.804 ± 0.11 | -0.442 ± 0.12
GCCCAGCAAUAUUACGUAGU | -0.118 ± 0.051 | -0.0932 ± 0.066
GAUGAGCAAUAUUACGAAUG | -2.71 ± 0.21 | -2.67 ± 0.34
ACCGAGCAAUAUUACGCAAA | -3.62 ± 0.24 | -3.11 ± 0.24
CUAAAGCAAUAUUACGUUUU | -4.6 ± 0.26 | -2.58 ± 0.21

Sequence | self-splicing fitness (ln) (30 °C) | self-splicing fitness (ln) (37 °C)
AUCGAGCAAUAUUACGGCAC | -3.16 ± 0.15 | -1.87 ± 0.16
GGGCAGCAAUAUUACGUUGG | -3.05 ± 0.16 | -1.65 ± 0.15
UGUGAGCAAUAUUACGUUCU | -3.79 ± 0.33 | -3.12 ± 0.4
GAGUAGCAAUAUUACGUAGU | -4.34 ± 0.31 | -2.68 ± 0.2
AAGAAGCAAUAUUACGACAA | -0.745 ± 0.098 | -0.224 ± 0.12
CGAUAGCAAUAUUACGGCAU | -2.85 ± 0.21 | -2.54 ± 0.26
CCCCAGCAAUAUUACGUACU | -3.21 ± 0.22 | -2.67 ± 0.27
GGUCAGCAAUAUUACGCUAU | -1.32 ± 0.092 | -1.03 ± 0.096
GGGAAGCAAUAUUACGGAAA | -1.4 ± 0.32 | -1.41 ± 0.36
UAAGAGCAAUAUUACGCUUU | -2.81 ± 0.18 | -1.85 ± 0.31
CUGUAGCAAUAUUACGCACA | -2.05 ± 0.13 | -1.19 ± 0.16
UAUGAGCAAUAUUACGCGCC | -4.05 ± 0.42 | –
CAACAGCAAUAUUACGCGCU | -3.18 ± 0.23 | -1.97 ± 0.19
UGGAAGCAAUAUUACGCCGU | -2.99 ± 0.48 | -1.87 ± 0.44
GAUCAGCAAUAUUACGUAUG | -0.935 ± 0.084 | -0.276 ± 0.097
ACUAAGCAAUAUUACGUUAU | -3.49 ± 0.13 | -1.55 ± 0.11
CCCGAGCAAUAUUACGUCAC | -2.9 ± 0.37 | -2.27 ± 0.49
AACAAGCAAUAUUACGACCC | -0.136 ± 0.22 | 0.116 ± 0.24
AUACAGCAAUAUUACGACGU | -0.374 ± 0.068 | 0.174 ± 0.084
ACUUAGCAAUAUUACGAACU | -0.706 ± 0.12 | -0.193 ± 0.14
GCUAAGCAAUAUUACGAUAA | -1.88 ± 0.17 | -1.1 ± 0.17
AUCGAGCAAUAUUACGCCCC | -2.24 ± 0.44 | –
ACUGAGCAAUAUUACGGACU | -1.08 ± 0.077 | -0.672 ± 0.093
GCGCAGCAAUAUUACGAAGU | -0.905 ± 0.13 | -0.493 ± 0.16

Source: the supplement of paper PMC7877785
